In US20190269761A1:

Key:
[1] = target: mSWI/SNF (BAF) complexes, endogenous; experiment: quantitative densitometry of anti-SS18 immunoblot of glycerol gradient, Aska-SS cells bearing SS18-SSX1
[2] = target: mSWI/SNF (BAF) complexes, endogenous; experiment: urea denaturation of 293T nuclear extract followed by anti-Brg IP and immunoblot
[3] = target: mSWI/SNF (BAF) complexes, endogenous; experiment: urea denaturation and IP, as restated in the discussion
[4] = target: mSWI/SNF (BAF) complexes, endogenous; experiment: urea denaturation and IP, as restated in the discussion; complexes of synovial sarcoma cells

## SS18 (wild-type, endogenous human) (from UniProt Q15532 2-418)
[1]
  percentage of BAF complexes that contain wild-type SS18: 2 to 8%
[2]
  urea concentration required to dissociate: 5 M
[3]
  urea concentration required to remove: 8 M

## SS18-SSX1 fusion protein (from UniProt Q15532 1-379)
[4]
  urea concentration required to remove: 8 M
